This note sets out measurements from article PMC8163826.

Read-outs that look alike come from different tables or passages of the source.

For assay [1], the target named is RSV CA protein (Rous sarcoma virus). The experiment in a line: cryo-EM structure; single-particle cryo-EM of T = 1 and T = 3 icosahedral CLPs; 500 µM CA assembled in 1 M NaPO4 at pH 8, diluted 1:4.
For assay [2] the target is unchanged. Described as above. The source holds these as a separate data set.
For assay [3], the target named is RSV CASPNC (Rous sarcoma virus). The experiment in a line: cryo-EM structure; cryo-electron tomography and subtomogram averaging of CASPNC CLPs (regular tubes and polyhedrons) assembled in the presence of 100 µM IP6.
Assay [4] has the same target. The description is as above. The source holds these as a separate data set.

One may read the stoichiometry N as the number of molecules, sites or subunits per partner or assembly. On to RSV CA protein (natural protein), for which the values for the stoichiometry N in assay [1] and in assay [2] were 5 and 6, respectively.
Take RSV CASPNC (domain or fragment): the values for the stoichiometry N in assay [3] and in assay [4] were 5 and 6, respectively.
